Results as given in patent US7132278B2, “PAS kinase” (Board of Regents, The University of Texas System, priority 2001, dated 2006).
Where a chain is given by its changes, count along the chain named. Names and notes keep the numbering of the source.

B1: S1287,89A: PASK mutant, serine residues 1287 and 1289 changed to alanine (protein)
chain: MEDGGLTAFEEDQRCLSQSLPLPVSAEGPAAQTTAEPSRSFSSAHRHLSRRNGLSRLCQSRTALSEDRWSSYCLSSLAAQNICTSKLHCPAAPEHTDPSEPRGSVSCCSLLRGLSSGWSSPLLPAPVCNPNKAIFTVDAKTTEILVANDKACGLLGYSSQDLIGQKLTQFFLRSDSDVVEALSEEHMEADGHAAVVFGTVVDIISRSGEKIPVSVWMKRMRQERRLCCVVVLEPVERVSTWVAFQSDGTVTSCDSLFAHLHGYVSGEDVAGQHITDLIPSVQLPPSGQHIPKNLKIQRSVGRARDGTTFPLSLKLKSQPSSEEATTGEAAPVSGYRASVWVFCTISGLITLLPDGTIHGINHSFALTLFGYGKTELLGKNITFLIPGFYSYMDLAYNSSLQLPDLASCLDVGNESGCGERTLDPWQGQDPAEGGQDPRINVVLAGGHVVPRDEIRKLMESQDIFTGTQTELIAGGQLLSCLSPQPAPGVDNVPEGSLPVHGEQALPKDQQITALGREEPVAIESPGQDLLGESRSEPVDVKPFASCEDSEAPVPAEDGGSDAGMCGLCQKAQLERMGVSGPSGSDLWAGAAVAKPQAKGQLAGGSLLMHCPCYGSEWGLWWRSQDLAPSPSGMAGLSFGTPTLDEPWLGVENDREELQTCLIKEQLSQLSLAGALDVPHAELVPTECQAVTAPVSSCDLGGRDLCGGCTGSSSACYALATDLPGGLEAVEAQEVDVNSFSWNLKELFFSDQTDQTSSNCSCATSELRETPSSLAVGSDPDVGSLQEQGSCVLDDRELLLLTGTCVDLGQGRRFRESCVGHDPTEPLEVCLVSSEHYAASDRESPGHVPSTLDAGPEDTCPSAEEPRLNVQVTSTPVIVMRGAAGLQREIQEGAYSGSCHHRDGLRLSIQFEVRRVELQGPTPLFCCWLVKDLLHSQRDSAARTRLFLASLPGSTHSTAAELTGPSLVEVLRARPWFEEPPKAVELEGLAACEGEYSQKYSTMSPLGSGAFGFVWTAVDKEKNKEVVVKFIKKEKVLEDCWIEDPKLGKVTLEIAILSRVEHANIIKVLDIFENQGFFQLVMEKHGSGLDLFAFIDRHPRLDEPLASYIFRQLVSAVGYLRLKDIIHRDIKDENIVIAEDFTIKLIDFGSAAYLERGKLFYTFCGTIEYCAPEVLMGNPYRGPELEMWSLGVTLYTLVFEENPFCELEETVEAAIHPPYLVSKELMSLVSGLLQPVPERRTTLEKLVTDPWVTQPVNLADYTWEEVCRVNKPESGVLSAASLEMGNRALADVAQAQELCGGPVPGEAPNGQGCLHPGDPRLLTS
modifications: left off: small tags and cut ends
notes: PASK mutant, serine residues 1287 and 1289 changed to alanine
B2: wildtype: His6-tagged human PASK enzyme expressed in baculovirus-infected Sf-9 cells (protein)
chain: B1 chain with A1287S, A1289S
modifications: left off: small tags and cut ends
notes: His6-tagged human PASK enzyme expressed in baculovirus-infected Sf-9 cells
B3: S1273-1289A: PASK mutant, all five serines simultaneously changed to alanine (protein)
chain: B1 chain with S1273A, S1277A, S1280A
modifications: left off: small tags and cut ends
notes: PASK mutant, all five serines simultaneously changed to alanine
B4: S1149A: PASK mutant, serine residue 1149 changed to alanine (protein)
chain: B1 chain with S1149A, A1287S, A1289S
modifications: left off: small tags and cut ends
notes: PASK mutant, serine residue 1149 changed to alanine
B5: PASK ΔN: truncated human PASK variant lacking both PAS domains, 948 amino-terminal residues removed, His6 tag (protein)
chain: SLPGSTHSTAAELTGPSLVEVLRARPWFEEPPKAVELEGLAACEGEYSQKYSTMSPLGSGAFGFVWTAVDKEKNKEVVVKFIKKEKVLEDCWIEDPKLGKVTLEIAILSRVEHANIIKVLDIFENQGFFQLVMEKHGSGLDLFAFIDRHPRLDEPLASYIFRQLVSAVGYLRLKDIIHRDIKDENIVIAEDFTIKLIDFGSAAYLERGKLFYTFCGTIEYCAPEVLMGNPYRGPELEMWSLGVTLYTLVFEENPFCELEETVEAAIHPPYLVSKELMSLVSGLLQPVPERRTTLEKLVTDPWVTQPVNLADYTWEEVCRVNKPESGVLSAASLEMGNRSLSDVAQAQELCGGPVPGEAPNGQGCLHPGDPRLLTS
modifications: left off: small tags and cut ends
notes: truncated human PASK variant lacking both PAS domains, 948 amino-terminal residues removed, His6 tag

Experiments:
Assay in all cases: PASK kinase assay, 32P incorporation into AMARA peptide substrate
AMARA peptide [1] = format: biochemical, human; conditions: Pre-phosphorylated enzyme; for Vmax: peptide substrate; for Km: peptide substrate 0.06–1 mM
Method: (§1) Biochemical properties of the Pask enzyme. A recombinant baculovirus was engineered to overexpress human PASK enzyme in cultured insect cells. The enzyme was expressed as a fusion with a His6 tag at its amino terminus such that the recombinant polypeptide could be purified by Ni-affinity chromatography. Routine enzyme preparations were harvested from 0.8 liter of cultured Sf-9 cells. Cells were lysed by dounce homogenization in 50 mM Tris-HCl, pH 8.0, 100 mM NaCl, 0.04% β-mercaptoethanol (“lysis buffer”) and spun at 100,000×G for one hour to remove insoluble debris. Soluble material (˜50 ml) was then applied to a 3 ml bed volume of Ni-affinity resin. Following application and 50× column volume wash, bound material was eluted with storage buffer (50 mM HEPES, pH 7.4, 100 mM NaCl, 1 mM DTT, 1 mM EDTA) supplemented with 250 mM imidazole. Eluted material was sequentially subjected to Mono-Q, anion-exchange chromatography, and eluted with increasing NaCl concentration. Fractions were evaluated by SDS-PAGE to identify PASK enriched fractions, pooled and dialyzed against storage buffer supplemented with 10% glycerol. Typical enzyme preparations yield 0.5 mg of intact PASK enzyme judged to be greater than 95% pure by visual inspection of Coomassie-stained SDS-PAGE gels.
(§2) Kinetic data were used to characterize the activities of PASK enzyme samples derived without modification from baculovirus and following pre-phosphorylation in the presence of ATP. Enzyme activity was monitored using a synthetic substrate bearing the sequence NH2-[…]-CO2H (AMARA peptide, SEQ ID NO:9). The serine residue in this peptide is known to be phosphorylated by both AMPK and Snf1 [2], both of which are exceedingly similar in primary amino acid sequence to the catalytic domain of PASK. The three arginine residues located at the carboxyl terminus of the AMARA peptide allow avid binding to phosphocellulose paper, thereby facilitating quantitation of ^32P incorporation catalyzed by PASK from [γ-^32P]ATP. […] Moreover, lambda phosphatase treatment generated an enzyme which had 7-fold lower activity than the unmodified enzyme, and this treatment was fully reversible by allowing the enzyme to autophosphorylate in the presence of ATP.
(§3) PASK concentrations (0.5–2 μg/ml) were determined to have linear rates with respect to protein concentration and time. Kinetic constants were determined using peptide substrate concentrations between 0.06–1 mM. The data were fit to a non-linear Michaelis-Menten equation using the GraphPad Prism 2.0 program. Vmax values given are μmol/min/mg. NS indicates an SE less than 0.05.

AMARA peptide [2] = target: T1, AMARA peptide (Homo sapiens, UniProt Q96RG2, F1266C/Y899H); format: biochemical; conditions: Untreated enzyme
T1 construct: Compounds are checked for effects on both full length and truncated versions of PASK; His6 (N); made in house; host or cells: baculovirus-infected Sf-9 insect cells
T1 sequence (Q96RG2 whole entry Y899H/F1266C, the tested form may be a part): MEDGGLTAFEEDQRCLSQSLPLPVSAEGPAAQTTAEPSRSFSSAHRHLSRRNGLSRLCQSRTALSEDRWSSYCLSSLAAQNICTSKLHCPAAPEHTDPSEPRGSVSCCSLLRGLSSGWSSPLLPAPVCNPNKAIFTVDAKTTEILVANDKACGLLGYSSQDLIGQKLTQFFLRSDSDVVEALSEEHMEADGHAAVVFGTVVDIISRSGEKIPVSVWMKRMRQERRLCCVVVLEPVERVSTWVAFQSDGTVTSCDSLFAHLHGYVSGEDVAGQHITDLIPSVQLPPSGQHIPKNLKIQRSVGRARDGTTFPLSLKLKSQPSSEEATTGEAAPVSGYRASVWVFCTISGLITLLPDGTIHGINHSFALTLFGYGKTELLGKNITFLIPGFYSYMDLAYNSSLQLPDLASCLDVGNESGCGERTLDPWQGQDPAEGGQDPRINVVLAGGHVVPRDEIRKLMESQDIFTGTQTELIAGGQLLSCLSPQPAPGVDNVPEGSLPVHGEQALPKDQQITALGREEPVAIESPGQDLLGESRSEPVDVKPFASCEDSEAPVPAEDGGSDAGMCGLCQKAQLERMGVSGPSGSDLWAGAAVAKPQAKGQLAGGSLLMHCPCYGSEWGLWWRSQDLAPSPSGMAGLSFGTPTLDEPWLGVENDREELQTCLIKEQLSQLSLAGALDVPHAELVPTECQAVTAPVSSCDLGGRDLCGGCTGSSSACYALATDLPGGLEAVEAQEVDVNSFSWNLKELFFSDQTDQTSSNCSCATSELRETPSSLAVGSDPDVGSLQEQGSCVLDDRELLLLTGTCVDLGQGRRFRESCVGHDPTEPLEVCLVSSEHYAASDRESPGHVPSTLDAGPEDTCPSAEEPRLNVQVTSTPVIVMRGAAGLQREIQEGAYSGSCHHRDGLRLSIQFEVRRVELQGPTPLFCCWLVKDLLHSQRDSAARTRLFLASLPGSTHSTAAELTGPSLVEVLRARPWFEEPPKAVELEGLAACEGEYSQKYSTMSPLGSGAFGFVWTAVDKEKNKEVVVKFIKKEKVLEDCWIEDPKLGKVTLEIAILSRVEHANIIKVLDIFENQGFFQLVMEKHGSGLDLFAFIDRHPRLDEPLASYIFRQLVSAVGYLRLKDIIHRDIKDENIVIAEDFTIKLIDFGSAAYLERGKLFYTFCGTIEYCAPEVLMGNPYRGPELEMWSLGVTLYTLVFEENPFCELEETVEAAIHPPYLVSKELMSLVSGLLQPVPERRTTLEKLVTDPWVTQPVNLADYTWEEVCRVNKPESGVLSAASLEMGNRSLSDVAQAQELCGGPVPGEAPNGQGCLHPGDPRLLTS
Method: as §1, §2, §3

AMARA peptide [3] = target: T2, AMARA peptide (Homo sapiens, UniProt Q96RG2, F1266C); format: biochemical; conditions: truncated variant vs native enzyme
T2 construct: Compounds are checked for effects on both full length and truncated versions of PASK; His6 (N); made in house; host or cells: baculovirus-infected Sf-9 insect cells
Method: as §1, §2, §3

| Molecule | Vmax (AMARA peptide [1]) | Km (AMARA peptide [1]) | Vmax (AMARA peptide [2]; peptide substrate) | Km (AMARA peptide [2]; peptide substrate 0.06–1 mM) | catalytic rate constant (Vmax) higher than the native enzyme (AMARA peptide [3]) |
| --- | --- | --- | --- | --- | --- |
| B1 | 0.1 µmol/min/mg | 200 µM |  |  |  |
| B2 | 0.2 µmol/min/mg | 200 µM | 0.1 µmol/min/mg | 1300 µM |  |
| B3 | 0.1 µmol/min/mg | 200 µM |  |  |  |
| B4 | 0.1 µmol/min/mg | 600 µM |  |  |  |
| B5 | 2.8 µmol/min/mg | 300 µM |  |  | 18 fold |
